Here are results for 2 molecules from patent US20210253998A1 (published 2021).

For assay [1], the target named is T1, Mta2 (endogenous, mouse cells) (mouse, UniProt Q9R190 1-668).
T1 sequence (looked up): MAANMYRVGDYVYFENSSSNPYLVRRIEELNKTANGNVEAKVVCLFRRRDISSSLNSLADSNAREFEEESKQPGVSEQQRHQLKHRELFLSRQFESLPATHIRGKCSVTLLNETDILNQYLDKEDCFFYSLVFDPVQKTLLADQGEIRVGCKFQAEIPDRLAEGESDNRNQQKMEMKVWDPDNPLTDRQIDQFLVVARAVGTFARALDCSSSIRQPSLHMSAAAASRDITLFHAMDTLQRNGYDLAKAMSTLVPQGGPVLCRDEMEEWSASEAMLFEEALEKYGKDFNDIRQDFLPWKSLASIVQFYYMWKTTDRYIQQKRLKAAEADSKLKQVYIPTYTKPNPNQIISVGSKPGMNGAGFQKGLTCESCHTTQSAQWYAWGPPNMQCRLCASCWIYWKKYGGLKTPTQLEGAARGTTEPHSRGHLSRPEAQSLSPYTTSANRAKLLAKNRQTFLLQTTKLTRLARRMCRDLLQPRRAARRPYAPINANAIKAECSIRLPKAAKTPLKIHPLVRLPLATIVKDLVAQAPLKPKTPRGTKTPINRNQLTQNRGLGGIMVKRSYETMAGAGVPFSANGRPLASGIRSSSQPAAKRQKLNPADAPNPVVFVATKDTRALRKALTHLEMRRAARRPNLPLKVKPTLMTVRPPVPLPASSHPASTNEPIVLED
Briefly: co-IP from a control ESC line, western blot.

Assay [2] addresses T2, Mbd2 (endogenous, mouse ESCs) (mouse, UniProt Q9Z2E1 1-414, limits assumed). Briefly: pull down of Mbd2 from a control ESC line, western blot.
For assay [3], the target named is T2, Mbd2 (endogenous, mouse ESCs). Briefly: co-IP with flag beads from ESCs carrying a Flag-tagged Mbd3 transgene, western blot. The text has this:
FIG. 61A—The present inventors established an ESC line carrying recovery of Flag-tagged Mbd3 transgene inserted in Mbd3^{-/-} ESC line. […] Moreover, Mbd3 interacts with Sall4 pluripotency reprogramming factor in ESCs. […] These assays recapitulate observation in many other cell lines where Mbd2 and Mbd3 form mutually exclusive complexes (Le Guezennec, X. et al. Mol. Cell. Biol. 26, 843-851, 2006; Aguilera, C. et al. Nature 469, 231-235, 2011).

T2 sequence (Q9Z2E1 whole entry): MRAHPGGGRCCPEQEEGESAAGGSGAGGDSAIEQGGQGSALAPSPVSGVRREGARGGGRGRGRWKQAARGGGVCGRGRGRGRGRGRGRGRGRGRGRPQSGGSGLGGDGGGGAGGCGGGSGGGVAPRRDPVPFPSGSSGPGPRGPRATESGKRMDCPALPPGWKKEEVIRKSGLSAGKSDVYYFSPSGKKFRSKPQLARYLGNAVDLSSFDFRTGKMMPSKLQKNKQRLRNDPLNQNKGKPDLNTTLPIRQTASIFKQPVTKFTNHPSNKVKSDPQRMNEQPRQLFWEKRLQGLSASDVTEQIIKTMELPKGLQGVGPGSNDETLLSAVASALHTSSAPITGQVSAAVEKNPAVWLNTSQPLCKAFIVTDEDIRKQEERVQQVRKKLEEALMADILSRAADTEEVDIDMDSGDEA

B1: Mbd3 (endogenous, mouse cells) (other, UniProt Q9Z2D8 1-285, looked up)
chain: MERKRWECPALPQGWEREEVPRRSGLSAGHRDVFYYSPSGKKFRSKPQLARYLGGSMDLSTFDFRTGKMLMNKMNKSRQRVRYDSSNQVKGKPDLNTALPVRQTASIFKQPVTKITNHPSNKVKSDPQKAVDQPRQLFWEKKLSGLSAFDIAEELVRTMDLPKGLQGVGPGCTDETLLSAIASALHTSTLPITGQLSAAVEKNPGVWLNTAQPLCKAFMVTDDDIRKQEELVQQVRKRLEEALMADMLAHVEELARDGEAPLDKACAEEEEEEEEEEEEPEPERV
Regarding B1, the binding result in assay [1] is recorded as “binds”; in assay [2] it was “no binding”.

B2: Flag-tagged Mbd3 (other)
chain: MERKRWECPALPQGWEREEVPRRSGLSAGHRDVFYYSPSGKKFRSKPQLARYLGGSMDLSTFDFRTGKMLMSKMNKSRQRVRYDSSNQVKGKPDLNTALPVRQTASIFKQPVTKITNHPSNKVKSDPQKAVDQPRQLFWEKKLSGLNAFDIAEELVKTMDLPKGLQGVGPGCTDETLLSAIASALHTSTMPITGQLSAAVEKNPGVWLNTTQPLCKAFMVTDEDIRKQEELVQQVRKRLEEALMADMLAHVEELARDGEAPLDKACAEDDDEEDEEEEEEEPDPDPEMEHV
notes: also called pCaggs-Flag-Mbd3; Flag-tagged Mbd3 transgene; not shown: Flag tag
With B2, in assay [3], the binding result is “no binding”.
